Article PMC6555819, “Comprehensive study of nuclear receptor DNA binding provides a revised framework for understanding receptor specificity”

B1: NRC3_wobSeed39_DR1_G10A_o1 (dsDNA)
DNA 1: GCCGAACTAAGTCAAAGGACAGTGAAAGGCGACGTAGCGATTGACAGCGTAGAATGAAGG
DNA 2: CCTTCATTCTACGCTGTCAATCGCTACGTCGCCTTTCACTGTCCTTTGACTTAGTTCGGC
B2: NRC3_wobSeed30_DR1_C20G_o1 (dsDNA)
DNA 1: GCACTAGCAGGCCAAGGGTGACTCAAGATTAGTCCGGCGATTGACAGCGTAGAATGAAGG
DNA 2: CCTTCATTCTACGCTGTCAATCGCCGGACTAATCTTGAGTCACCCTTGGCCTGCTAGTGC
B3: NRC3_random_hg19_2_o1 (dsDNA)
DNA 1: GCGTAACAAGAACAAGGCCATACTTTCATGCATCTAGCGATTGACAGCGTAGAATGAAGG
DNA 2: CCTTCATTCTACGCTGTCAATCGCTAGATGCATGAAAGTATGGCCTTGTTCTTGTTACGC
B4: NRC3_wobSeed88_DR3_T15A_o1 (dsDNA)
DNA 1: GCTAGCCTAGGTCAAGCGGGCCAGTATAGTGTCGGCGCGATTGACAGCGTAGAATGAAGG
DNA 2: CCTTCATTCTACGCTGTCAATCGCGCCGACACTATACTGGCCCGCTTGACCTAGGCTAGC
B5: NRC3_wobSeed64_DR2_T16A_o1 (dsDNA)
DNA 1: GCTAGCCTAGGTCATAGGGCCAGTATAGTACGCATCGCGATTGACAGCGTAGAATGAAGG
DNA 2: CCTTCATTCTACGCTGTCAATCGCGATGCGTACTATACTGGCCCTATGACCTAGGCTAGC
B6: NRC3_wobSeed90_DR3_T12A_o1 (dsDNA)
DNA 1: GCCATACAGGGACAGCTAGGCCAGAGTAGGGACGGCGCGATTGACAGCGTAGAATGAAGG
DNA 2: CCTTCATTCTACGCTGTCAATCGCGCCGTCCCTACTCTGGCCTAGCTGTCCCTGTATGGC
B7: NRC3_wobSeed69_DR2_G10A_o1 (dsDNA)
DNA 1: GCAGTCAAAATTCACTAGGTAACGTAAGATTCAGCTGCGATTGACAGCGTAGAATGAAGG
DNA 2: CCTTCATTCTACGCTGTCAATCGCAGCTGAATCTTACGTTACCTAGTGAATTTTGACTGC
B8: NRC3_wobSeed100_DR4_A24C_o1 (dsDNA)
DNA 1: GCCCTACTGGGCCACGAAAGGTCCTTGATTCAGTGAGCGATTGACAGCGTAGAATGAAGG
DNA 2: CCTTCATTCTACGCTGTCAATCGCTCACTGAATCAAGGACCTTTCGTGGCCCAGTAGGGC
B9: NRC3_wobSeed58_DR2_A9T_o1 (dsDNA)
DNA 1: GCATCGAATGGTCGTGAGGTGAGTATACAGAAAGGCGCGATTGACAGCGTAGAATGAAGG
DNA 2: CCTTCATTCTACGCTGTCAATCGCGCCTTTCTGTATACTCACCTCACGACCATTCGATGC
B10: NRC3_wobSeed32_DR1_C4A_o1 (dsDNA)
DNA 1: GCTATTGTAGATCAAAGGTTAAGAAAGCCGAAGCCTGCGATTGACAGCGTAGAATGAAGG
DNA 2: CCTTCATTCTACGCTGTCAATCGCAGGCTTCGGCTTTCTTAACCTTTGATCTACAATAGC
B11: NRC3_wobSeed44_DR1_G10A_o1 (dsDNA)
DNA 1: GCTGAATGAAGTTAAAGATCAGGGAACGTGGCGTCGGCGATTGACAGCGTAGAATGAAGG
DNA 2: CCTTCATTCTACGCTGTCAATCGCCGACGCCACGTTCCCTGATCTTTAACTTCATTCAGC
B12: NRC3_wobSeed44_DR1_G10C_o1 (dsDNA)
DNA 1: GCTGAATGACGTTAAAGATCAGGGAACGTGGCGTCGGCGATTGACAGCGTAGAATGAAGG
DNA 2: CCTTCATTCTACGCTGTCAATCGCCGACGCCACGTTCCCTGATCTTTAACGTCATTCAGC
B13: NRC3_wobSeed27_DR1_G17T_o1 (dsDNA)
DNA 1: GCACTCGGAGGACAAATGTCAGAGCTACGCCAGTGAGCGATTGACAGCGTAGAATGAAGG
DNA 2: CCTTCATTCTACGCTGTCAATCGCTCACTGGCGTAGCTCTGACATTTGTCCTCCGAGTGC
B14: NRC3_wobSeed76_DR3_C22A_o1 (dsDNA)
DNA 1: GCCCTACTGGGCCAAAAAGGTAATTGATGCCGATAAGCGATTGACAGCGTAGAATGAAGG
DNA 2: CCTTCATTCTACGCTGTCAATCGCTTATCGGCATCAATTACCTTTTTGGCCCAGTAGGGC
B15: NRC3_wobSeed17_DR0_G16C_o1 (dsDNA)
DNA 1: GCATATGTAGGTTAGCGTCATTCAGAAAGTAGGGAAGCGATTGACAGCGTAGAATGAAGG
DNA 2: CCTTCATTCTACGCTGTCAATCGCTTCCCTACTTTCTGAATGACGCTAACCTACATATGC
B16: NRC3_wobSeed134_DR5_o1 (dsDNA)
DNA 1: GCGCTGCTAGGTCAACTGATGGTCAGCTAAAGCTCGGCGATTGACAGCGTAGAATGAAGG
DNA 2: CCTTCATTCTACGCTGTCAATCGCCGAGCTTTAGCTGACCATCAGTTGACCTAGCAGCGC
B17: NRC3_wobSeed134_DR5_C13T_o1 (dsDNA)
DNA 1: GCGCTGCTAGGTTAACTGATGGTCAGCTAAAGCTCGGCGATTGACAGCGTAGAATGAAGG
DNA 2: CCTTCATTCTACGCTGTCAATCGCCGAGCTTTAGCTGACCATCAGTTAACCTAGCAGCGC
B18: NRC3_random_hg19_292_o1 (dsDNA)
DNA 1: GCCAAGACCCTAAGGAACCACTGTGTGGGATGTCAGGCGATTGACAGCGTAGAATGAAGG
DNA 2: CCTTCATTCTACGCTGTCAATCGCCTGACATCCCACACAGTGGTTCCTTAGGGTCTTGGC
B19: NRC3_wobSeed65_DR2_A9G_o1 (dsDNA)
DNA 1: GCATATGTGGGTTATCGGGTCATTCAGTTTGCGCATGCGATTGACAGCGTAGAATGAAGG
DNA 2: CCTTCATTCTACGCTGTCAATCGCATGCGCAAACTGAATGACCCGATAACCCACATATGC
B20: NRC3_random_hg19_240_o1 (dsDNA)
DNA 1: GCGACCATCTCCACACTGCACGATGATGAGATCCTGGCGATTGACAGCGTAGAATGAAGG
DNA 2: CCTTCATTCTACGCTGTCAATCGCCAGGATCTCATCATCGTGCAGTGTGGAGATGGTCGC
B21: NRC3_wobSeed124_DR5_G10T_o1 (dsDNA)
DNA 1: GCCCTACTGTGCCATTCAGAGGTCATTGATCATATGGCGATTGACAGCGTAGAATGAAGG
DNA 2: CCTTCATTCTACGCTGTCAATCGCCATATGATCAATGACCTCTGAATGGCACAGTAGGGC
B22: NRC3_wobSeed124_DR5_C24T_o1 (dsDNA)
DNA 1: GCCCTACTGGGCCATTCAGAGGTTATTGATCATATGGCGATTGACAGCGTAGAATGAAGG
DNA 2: CCTTCATTCTACGCTGTCAATCGCCATATGATCAATAACCTCTGAATGGCCCAGTAGGGC
B23: NRC3_wobSeed136_DR5_G21C_o1 (dsDNA)
DNA 1: GCTAGCCTAGGTCATTCAGGCGCCAGTATAGAAAGCGCGATTGACAGCGTAGAATGAAGG
DNA 2: CCTTCATTCTACGCTGTCAATCGCGCTTTCTATACTGGCGCCTGAATGACCTAGGCTAGC
B24: NRC3_wobSeed34_DR1_G10A_o1 (dsDNA)
DNA 1: GCATCGAAAAGTCGAAGGTGAGTATACCCACCCGAAGCGATTGACAGCGTAGAATGAAGG
DNA 2: CCTTCATTCTACGCTGTCAATCGCTTCGGGTGGGTATACTCACCTTCGACTTTTCGATGC
B25: NRC3_random_hg19_301_o1 (dsDNA)
DNA 1: GCGAGAACAGACTAACACACACACACACACACACACGCGATTGACAGCGTAGAATGAAGG
DNA 2: CCTTCATTCTACGCTGTCAATCGCGTGTGTGTGTGTGTGTGTGTGTTAGTCTGTTCTCGC
B26: NRC3_wobSeed63_DR2_G19A_o1 (dsDNA)
DNA 1: GCCGAACTAGGTCACCAGAACAGTGAAGAGGTTGGAGCGATTGACAGCGTAGAATGAAGG
DNA 2: CCTTCATTCTACGCTGTCAATCGCTCCAACCTCTTCACTGTTCTGGTGACCTAGTTCGGC
B27: NRC3_wobSeed18_DR0_G9C_o1 (dsDNA)
DNA 1: GCGATACACGGTCAAGGCCAGAGTACGCGTATTGATGCGATTGACAGCGTAGAATGAAGG
DNA 2: CCTTCATTCTACGCTGTCAATCGCATCAATACGCGTACTCTGGCCTTGACCGTGTATCGC
B28: NRC3_wobSeed4_DR0_T8G_o1 (dsDNA)
DNA 1: GCCCTACGGGGCCAAGGTCATTGATCAGTCAAAGCAGCGATTGACAGCGTAGAATGAAGG
DNA 2: CCTTCATTCTACGCTGTCAATCGCTGCTTTGACTGATCAATGACCTTGGCCCCGTAGGGC
B29: NRC3_wobSeed137_DR5_A16G_o1 (dsDNA)
DNA 1: GCATATGTAGGTTACGTCCGGGTCATTCAGGCTATGGCGATTGACAGCGTAGAATGAAGG
DNA 2: CCTTCATTCTACGCTGTCAATCGCCATAGCCTGAATGACCCGGACGTAACCTACATATGC
B30: NRC3_wobSeed6_DR0_A6G_o1 (dsDNA)
DNA 1: GCCCTGGCAGGCCAGGGTCACTCAAGCATTTCGCTTGCGATTGACAGCGTAGAATGAAGG
DNA 2: CCTTCATTCTACGCTGTCAATCGCAAGCGAAATGCTTGAGTGACCCTGGCCTGCCAGGGC
B31: NRC3_wobSeed6_DR0_C13G_o1 (dsDNA)
DNA 1: GCCCTAGCAGGCGAGGGTCACTCAAGCATTTCGCTTGCGATTGACAGCGTAGAATGAAGG
DNA 2: CCTTCATTCTACGCTGTCAATCGCAAGCGAAATGCTTGAGTGACCCTCGCCTGCTAGGGC
B32: NRC3_wobSeed73_DR3_T21A_o1 (dsDNA)
DNA 1: GCCAAACTAGGTCACAGAGGACAAAGTCCGTGCGTAGCGATTGACAGCGTAGAATGAAGG
DNA 2: CCTTCATTCTACGCTGTCAATCGCTACGCACGGACTTTGTCCTCTGTGACCTAGTTTGGC
B33: NRC3_wobSeed82_DR3_A9C_o1 (dsDNA)
DNA 1: GCATCGAACGGTCGACGAGGTGAGTATACACCGTTTGCGATTGACAGCGTAGAATGAAGG
DNA 2: CCTTCATTCTACGCTGTCAATCGCAAACGGTGTATACTCACCTCGTCGACCGTTCGATGC

The binders below were run against RXRa (Homo sapiens, UniProt P19793) (assay: no ligand; PBM; 180 nM; PBS pH 7.4, 2% milk, 0.02% Triton X-100, 1 mM DTT, BSA, 0.4 mg/ml salmon testes DNA). Conditions: tags: His cleaved; chain copies: 2; label: surface-attached array probe.
RXRa, sequence (P19793 whole entry): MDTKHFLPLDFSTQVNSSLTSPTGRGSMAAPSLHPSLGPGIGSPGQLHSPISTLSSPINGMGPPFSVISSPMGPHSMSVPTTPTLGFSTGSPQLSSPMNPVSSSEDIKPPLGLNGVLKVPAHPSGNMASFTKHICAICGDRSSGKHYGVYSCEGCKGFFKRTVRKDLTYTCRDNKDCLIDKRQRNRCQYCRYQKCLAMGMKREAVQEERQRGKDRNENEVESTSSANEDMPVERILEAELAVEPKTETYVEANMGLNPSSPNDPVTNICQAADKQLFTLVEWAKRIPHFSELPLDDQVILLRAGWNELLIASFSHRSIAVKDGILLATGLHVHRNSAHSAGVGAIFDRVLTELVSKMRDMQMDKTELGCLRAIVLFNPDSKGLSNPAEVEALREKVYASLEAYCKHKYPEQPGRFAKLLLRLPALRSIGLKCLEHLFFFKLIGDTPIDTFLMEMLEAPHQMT

First: B1
Second: B2
The binding signal of the first is lower: 0.22 PBM z-score against 500 random probes for the first, 0.36 PBM z-score against 500 random probes for the second.

Compared with B3, B4 is higher in binding signal: 0.08 PBM z-score against 500 random probes for the first, 3.14 PBM z-score against 500 random probes for the second.

First: B5
Second: B6
The binding signal of the first is higher: 3.11 PBM z-score against 500 random probes for the first, 0.2 PBM z-score against 500 random probes for the second.

Going from B7 to B8, the binding signal falls from 0.46 PBM z-score against 500 random probes to 0.26 PBM z-score against 500 random probes.

Going from B9 to B10, the binding signal rises from 0.34 PBM z-score against 500 random probes to 3.28 PBM z-score against 500 random probes.

First: B11
Second: B12
The binding signal of the first is higher: 0.44 PBM z-score against 500 random probes for the first, 0.4 PBM z-score against 500 random probes for the second.

Going from B13 to B14, the binding signal falls from 0.08 PBM z-score against 500 random probes to 0.01 PBM z-score against 500 random probes.

Compared with B15, B16 is higher in binding signal: 0.46 PBM z-score against 500 random probes for the first, 3.07 PBM z-score against 500 random probes for the second.

Going from B17 to B18, the binding signal falls from 0.49 PBM z-score against 500 random probes to 0.44 PBM z-score against 500 random probes.

Going from B19 to B20, the binding signal falls from 3.44 PBM z-score against 500 random probes to 0.1 PBM z-score against 500 random probes.

First: B21
Second: B22
The binding signal of the first is higher: 3.59 PBM z-score against 500 random probes for the first, 0.48 PBM z-score against 500 random probes for the second.

Going from B23 to B24, the binding signal falls from 3 PBM z-score against 500 random probes to 0.45 PBM z-score against 500 random probes.

Going from B25 to B26, the binding signal rises from 0.4 PBM z-score against 500 random probes to 3.24 PBM z-score against 500 random probes.

Compared with B27, B28 is higher in binding signal: 0.39 PBM z-score against 500 random probes for the first, 3.5 PBM z-score against 500 random probes for the second.

Compared with B29, B30 is higher in binding signal: 3.33 PBM z-score against 500 random probes for the first, 3.39 PBM z-score against 500 random probes for the second.

Compared with B31, B32 is higher in binding signal: 3.19 PBM z-score against 500 random probes for the first, 3.55 PBM z-score against 500 random probes for the second.

B33 was tested, and the binding signal was 0.44 PBM z-score against 500 random probes.
